According to the DeepSol protein solubility set:

Assay: soluble on expression in E. coli; label from the status in PepcDB or PDB records

Row | Sequence | soluble on expression in E. coli
1 | IPRFGVKTEQEDVLAKELEDVNKWGLHVFRIAELSGNRPLTVIMHTIFQERDLLKTFKIPVDTLITYLMTLEDHYHADVAYHNNIHAADVVQSTHVLLSTPALEAVFTDLEILAAIFASAIHDVDHPGVSNQFLINTNSELALMYNDSSVLENHHLAVGFKLLQEENCDIFQNLTKKQRQSLRKMVIDIVLATDMSKHMNLLADLKTMVETKKVTSSGVLLLDNYSDRIQVLQNMVHCADLSNPTKPLQLYRQWTDRIMEEFFRQGDRERERGMEISPMCDKHNASVEKSQVGFIDYIVHPLWETWADLVHPDAQDILDTLEDNREWYQSTIPQSPSPAPDDPEEGRQGQTEKFQFELTLE | soluble
2 | MSKFGGATAKVIKGALKVRQTRAALTLTNEAVSRIRVLLAQQNDANALKIGVRQKGCNGLTYTLEYAKDKQKFDEEVEQDGIKVWIEPKAQLSLLGSEMDYVTDKLSSEFVFRNPNIKGTCGCGESFSI | not soluble
3 | MAGTGHTPEEALALLKRGAEEIVPEEELLAKLKEGRPLTVKLGADPTRPDLHLGHAVVLRKMRQFQELGHKVVLIIGDFTGMIGDPSGRSKTRPPLTLEETRENAKTYVAQAGKILRQEPHLFELRYNSEWLEGLTFKEVVRLTSLMTVAQMLEREDFKKRYEAGIPISLHELLYPFAQAYDSVAIRADVEMGGTDQRFNLLVGREVQRAYGQSPQVCFLMPLLVGLDGREKMSKSLDNYIGLTEPPEAMFKKLMRVPDPLLPSYFRLLTDLEEEEIEALLKAGPVPAHRVLARLLTAAYALPQIPPRIDRAFYESLGYAWEAFGRDKEAGPEEVRRAEARYDEVAKGGIPEEIPEVTIPASELKEGRIWVARLFTLAGLTPSNAEARRLIQNRGLRLDGEVLTDPMLQVDLSRPRILQRGKDRFVRVRLSD | soluble
4 | MGSDKIHHHHHHMLGINRKLEQLESDGTIIRVGLVGAGQMGRGMVSQIESMKGMRVVVTADIVLENVKLAYERAGVPKDEVIETDEISKAADAIQAGKVVATGDAELVTALSEVDVVVDATGIPNIGAKIAWDAILNKKHIVMLNVEADVTVGPLLKQMADACGVVYTGSAGDEPGAVMELYDFADALGFEVVALGKGKNNPLNVEANPQTAAEEAKRKGASPKMLASFQDGTKTMVEMTAVANATGFLPDKPGMNGFVGTVEELPAIFRRKEEGGQVENERIVEYINGVAPGVFAIVKSDKEEVNHEMTYLSMGEGPNYVLYRPYHLTSLETPISIARAHLYHEATIAPWQGLQAETVAVAKKDLAAGEFLDSIGGFTVYGTILTVTDAKEKGALPIGLVDAHVQVKRPIKKGEIITYDDVEQKKESTIWRLRRIQDETLVGKRELEAKV | not soluble
5 | MNPLVIKLGGVLLDSEEALERLFTALVTYREKHERPLVIMHGGGCLVDELMKRLALPVVKKNGLRVTPADQIDIITGALAGTANKTLLAWAVKHQINAVGLCLADGNTVTVTLLDAELGHVGKAQPGSAALVQTLLAAGYMPIISSIGITVEGQLMNVNADQAATALAATLGADLILLSDVSGILDGKGQRIAEMTAQKAEQLIAQGIITDGMVVKVNAALDAARSLGRPVDIASWRHSEQLPALFNGVPIGTRISV | not soluble
6 | MEKKVGTDRVKRGMAQMQKGGVIMDVVNAEQAKIAEEAGAVAVMALERVPSDIRAAGGVARMADPRIVEEVMNAVSIPVMAKARIGHITEARVLEAMGVDYIDESEVLTPADDEFHLLKSDFTVPFVCGCRDIGEALRRIGEGAAMLRTKGEPGTGNIVEAVRHMRQVNGQIRQIASMTDDELMVAAKNFGAPYELVKEIKTLGKLPVVNFAAGGVATPADAALMMELGADGVFVGSGIFKSDNPAKFASAIVQATTYYTDYE | not soluble
7 | MAHHHHHHSLIQAVLFDLDGTLADTALDLGGALNTLLARHGLPAKSMDEIRTQASHGAAGLIKLGAGITPDHPDYARWRTEYLDEYDSRYAQDTTLFDGVNELIAELGKRGIKWGIITNKPMRFTDKLVPKLGFIIPPAVVVSGDTCGEPKPSVKPMLYACGQIHADPQHTLYVGDAERDIQAGRNAGMTTVLAEWGYIAPEDDTGSWQADFHIRTPLDLLECLDKIQPEG | soluble
8 | MGKFSKIKKVQEEESAHQKMEWEAAGAKDSSSDDSSDESDNDDQPKQATEETRKRAELWTNRERVLVLCSRGADVRTRYLMKDIKDLLPHAKGDSKLDQQKSLNVLNEIAEMKNCTKVMYFESRKRKDTYLWMSNVEKGPSIKFLVHNVHTMKELKMSGNCLRASRPVLSFDDAFDKKPQLKLIKAVLMQTLGTPHHHPRSQPFVDHVFNFSVGEGDKIWFRNFQIVDESLQLQEVGPRFVLEMVRLFAGSFEGAVLYDNPNYVSPNVIRREHRKGQHSYIEKQLAVKASNIKQAKVTEILAEKTVDLVGKEFDTQNNAAADSEAAAQITAQIEKRRVRKKKSQASKYTGSD | soluble
9 | MKIAGLKQLNTALKEAASGGFSRQASRWLEECGQDFLEIVQSELISTQTIDTEKLLSSFEKGAEDNLWIVQSGGLSLEVGTQLDYASFLNDGHWTSKQDVRWVPGRFQGSRFIYDPAASTGMALKRKWIPGTGYWDHALLLYEQLFEKSLESKLRQWLKKL | not soluble
10 | MTKKLHIKTWGCQMNEYDSSKMADLLGSTHGYELTEIAEEADVLLLNTCSIREKAQEKVFHQLGRWKALKDLNPNLIIGVGGCVASQEGAHIRERAHYVDVIFGPQTLHRLPEMINHVQGTRSPIVDISFPEIEKFDRLPEPRADGPTAFVSIMEGCNKYCTFCVVPYTRGEEVSRPCDDVLFEIAQLAAQGVREVNLLGQNVNAYRGETYDGEICSFAELLRLVAAIDGIDRVRFTTSHPIEFTDDIISVYEDTPELVSFLHLPVQSGSDRVLTMMKRRHTALEYKAIIRKLHNARPGILISSDFIIGFPGETQADFEQTMKLIADVNFDMSYSFVYSARPGTPAADMVDDVLEEEKKQRLYLLQDRITKQAMRFSRLMLGTVQRILVEGTSRKSVMELSGRTENNRVVNFEGTPDMIGKFVDVEIVDVYTNSLRGIVVRTEDQMDLRVHESPSSVIARTRKENEIGVGFYQPLEHHHHHH | soluble
11 | MSLLSRSVKRELVGKSAQMEQIRSHVAQYALLNRHVVIVGESGCGRHTIAYLIHQLTTNNGHLPWVELVASAKTEWSTVEPKVQESAGGTLLIDHIELLSEEVQRNVVQSLLNQERLNRPRTRVIAVIDQPPEQLIAQNQLLPELYYLLNQGQIDVPLLRQRPDDIAALFHYFLKQSCYKLGKPMPNVEPHYLALLRAHQWPGNVRELRNVAELYAIGIVKLAGKERLYNQEEMLSPLDELVDDYEKQVIEDALFLFSGRVADAANYLQVPRKKLYLRMKKHGLEKDAFKAREGHHHHHH | not soluble
12 | MGSDKIHHHHHHMDDFVQSKARKDIFRLKAYVPGKPIEEVKRELGLDSIIKLASNENPLGTSPLALAALQEGLNKIHLYPDANAYELKQELASFWQVPAEQIVVGNGSDELLLLLAQTFINPGDEVIHAEQTFSEYESTSTLMGAHSITIPLKEYKYDLKAILEAINTRTKIIYLCNPNNPTGTIVEQEEIELFMQQVPGEILVVFDEAYGEYVDNPAFGSGLQYLREGRNIVLLKTFSKIYGLAGLRIGYVITTPAIAAALDRVREPFNVNFAAQIAAQAALRDIDFVEKSRQLNLQGKDYLYQELARLGLDYVKTNTNFIFLDTGRDCQLVFRELLQRGVIIRTGDIFGYPTFIRLTIGTMEENRRFIKSLQEVLEVIPL | not soluble
13 | MAHHHHHHMQRDVYASLIKKRHKQMVPLLIHQVSGDITRENIFDEVFHGYKLRRIVLMTHMAATPATLPRLPRDIIVSDFDKLKAIHQPHFHYKLLPLLCTDFEAFSALQGICASANSPFTIEDRKDPQGLTHRLSNGCSERQALCEFFDPHIAPAEKLVPVFSRKLPISAVVFDGLLLKQNYPKVAALLTVHEAASEKSIIERAIMRDFFVSPLYTKVSGNSDVAQSLRLVHHCTHFMALKRAVGSDAPSRQSLMRLAAEKKLFMYEKIGDEYQFVH | soluble
14 | MGSDKIHHHHHHGQNVHPNLPWIDISGQRERQVTIAPGRPDLYNGHPTTVMMDDHKTILCTWSYGHGGKASFIAESKDAGLTWKNGKTPADWQTMSNCPSIYKLTDKQGKERVFVFSAWPDMPMTYSEDGGKSWSPVRSLNKPCVMAFSSIVKLKNGDYLGLYHRGLNDRDRPPLTLWQSVSHDGGLTWSESVKVGEMEGRSPCEPCVFRAPDGKRLVCVARENNRVGNSLMMFSDDEGTTWSPLQKTPWGLTGDRHVIKFTPDGRMIAVFRDMAPNSPTKGHFVAWVGNYKDLLEGTSGQYKIKLLHSYAGSDCGYPGLEILPDGTIVAITYVKMRPGPEQHSIVGVRFKLEETDKMLY | not soluble
15 | MSLRKEPSSQLELFLNILHGFSTTITSETLNKISEKFLDMVNGSINPSLSLKNKITIVFQDCLTNGFQSANLSKLLENLNSIDVVEVLSEFIHCDLKVGAFSVIDLLDTDIFLSVLSMESLKQTLSIMDKFIIDILLVFTIVDINYEVFAEKLSKLITLHFNISLWLQVYQIDKLLAISETFGHVTKYNYGAQLKSYSDITDFTTLMVGFVKNSPTAEPPIFTRAFSDFILNGEDLTCAKQFLHFVAKPYHVSKDPVEELLYALSLFKCNEYDASIEIFLANDFSDELSLPKYLEVTENHVWYNLLHAINTKDKPAYYYELSVLCSKASSYANALKTIKKSISLDGTRADQLIQYLDTLIVFGDYKEVLDVLRLEQKVLDISLREKYYYTLLSDQKYSEMFTATLLQECYNANISNGSILLCVSDYKIIASILSSQVSLTDWNSYKKLFSFRILNQHERKACEELYDYVLFGSNDEVKEKCLLLISNVLKTFSDAKDQWFISYPGQIIHLHELNDKMNKCSKEGHHHHHH | not soluble
16 | MKKPSKCQSPGDSSISAKENDAQSNRSRDSKVAPKSEGLATGLDETEWKSRLTTPEIVLKEIRTLEGVSYYHGMVARDLVESKLTRCGDYLIRATDNRIMEFEFILSFFNKKRIHSHLTIKCDVEAGKWALGLLSVNQFSSVVDLTNFYKTNPIGAGFFLKRAISKGKYMIAHDRIKYSPKDDLLGTGNFSDVFRGKIELENQMVNVALKTTKLLDDTMDPTKNVKANKIKKEMIQEAEVMSQLRHANVTSFFGIAVDRLPILLIIEFCNGGNLQGHLIKFGDRIGTNERFLYLHDASAGLNYIHAMSITHRDIAARNCLISVNGFVKLSDFGMGLKVRRNESAKKVAEDDDGKENKEPKLPVRWMSPELVDTPDAFSKMSDMWSLGILAYEIFTNATKPFFNLDDTDVMQTVKSGKHPPLPLSMGPDLIRLLKDVLVAAPTQRTTADKFYNELHVLCTQKGALSLNGLTINQIRGISRKRVEHWEGYIPQVVICDKNGNERDWGDAPQEMLANVVWRGKK | not soluble
17 | MELKPTAPPIFTGRPFVVAWDVPTQDCGPRLKVPLDLNAFDVQASPNEGFVNQNITIFYRDRLGLYPRFDSAGRSVHGGVPQNVSLWAHRKMLQKRVEHYIRTQESAGLAVIDWEDWRPVWVRNWQDKDVYRRLSRQLVASRHPDWPPDRIVKQAQYEFEFAAQQFMLETLRYVKAVRPRHLWGFYLFPDCYNHDYVQNWESYTGRCPDVEVARNDQLAWLWAESTALFPSVYLDETLASSRHGRNFVSFRVQEALRVARTHHANHALPVYVFTRPTYSRRLTGLSEMDLISTIGESAALGAAGVILWGDAGYTTSTETCQYLKDYLTRLLVPYVVNVSWATQYCSRAQCHGHGRCVRRNPSASTFLHLSTNSFRLVPGHAPGEPQLRPVGELSWADIDHLQTHFRCQCYLGWSGEQCQWDHRQAAGGASEAWAGSHLTSLLALAALAFTWTL | not soluble
18 | MGHHHHHHSHMLVLRSGLTKALASRTLAPQVCSSFATGPRQYDGTFYEFRTYYLKPSNMNAFMENLKKNIHLRTSYSELVGFWSVEFGGRTNKVFHIWKYDNFAHRAEVRKALANCKEWQEQSIIPNLARIDKQETEITYLIPWSKLEKPPKEGVYELAVFQMKPGGPALWGDAFERAINAHVNLGYTKVVGVFHTEYGELNRVHVLWWNESADSRAAGRHKSHEDPRVVAAVRESVNYLVSQQNMLLIPASFSPLK | not soluble
